Substitutions are numbered along the chain they refer to. Names may count otherwise.
B1: Escherichia coli NudC (crystallization construct) (enzyme, E. coli)
chain: MDRIIEKLDHGWWVVSHEQKLWLPKGELPYGEAANFDLVGQRALQIGEWQGEPVWLVQQQRRHDMGSVRQVIDLDVGLFQLAGRGVQLAEFYRSHKYCGYCGHEMYPSKTEWAMLCSHCRERYYPQIAPCIIVAIRRDDSILLAQHTRHRNGVHTVLAGFVEVGETLEQAVAREVMEESGIKVKNLRYVTSQPWPFPQSLMTAFMAEYDSGDIVIDPKELLEANWYRYDDLPLLPPPGTVARRLIEDTVAMCRAEYE
B2: E. coli NudC Y188Q (enzyme, E. coli K-12, UniProt P32664 1-257, looked up)
chain: B1 chain with Y188Q
B3: E. coli NudC Y188A (enzyme, E. coli K-12, UniProt P32664 1-257, looked up)
chain: B1 chain with Y188A

Tests used:
crystal structure = target: the molecule itself; assay: crystal structure
SEC = target: the molecule itself; assay: SEC

Row | Protein | stoichiometry N (crystal structure) | binding result (SEC)
1 | B1 | 2 | –
2 | B2 | – | binds
3 | B3 | – | binds

Source: article PMC5003112 (Nature chemical biology, 2016)
